Positions count from the first letter of the chain named.

The target in assay [1] is T1, human LAG-3 (full length, on the cell surface) (human, UniProt P18627 23-525).
T1 construct: Full-length human LAG-3 expressed on cells; also called HEK293-hLAG-3; HEK293 cells transfected with LAG-3 gene
T1 sequence: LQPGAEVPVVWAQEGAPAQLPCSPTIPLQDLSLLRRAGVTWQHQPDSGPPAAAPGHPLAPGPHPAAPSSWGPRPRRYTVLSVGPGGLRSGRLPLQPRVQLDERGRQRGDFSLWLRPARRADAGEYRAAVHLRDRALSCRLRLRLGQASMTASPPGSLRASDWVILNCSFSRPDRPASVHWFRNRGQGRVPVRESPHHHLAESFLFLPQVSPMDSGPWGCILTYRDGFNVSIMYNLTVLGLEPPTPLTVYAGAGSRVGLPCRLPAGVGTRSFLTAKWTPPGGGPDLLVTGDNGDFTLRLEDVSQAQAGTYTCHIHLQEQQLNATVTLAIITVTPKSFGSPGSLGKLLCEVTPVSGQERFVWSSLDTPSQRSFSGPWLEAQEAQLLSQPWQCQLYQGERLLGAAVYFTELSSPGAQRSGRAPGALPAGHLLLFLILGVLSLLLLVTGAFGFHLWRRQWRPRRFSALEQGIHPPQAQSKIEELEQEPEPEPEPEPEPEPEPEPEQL
The experiment in a line: FACS, HEK293-hLAG-3; 40.000 nM. The source says: The pIRES plasmid with the monkey-derived full-length gene was transfected into the HEK293 cell line to construct a HEK293 stable cell line containing monkey LAG-3 (herein referred to as HEK293-cLAG-3 stable cell line). The HEK293-hLAG-3 stable cell line and HEK293-cLAG-3 stable cell line were expanded in a T-75 cell culture flask to a 90% confluence. The medium was aspirated, and the cells were washed with HBSS (Hanks' Balanced Salt Solution) 1-2 times, then treated with a enzyme-free cell dissociation fluid (Versene solution: Life technology) and the cells were collected. The cells were washed with HBSS buffer for 1-2 times. After counted, the cells were diluted with HBSS to 1-2×10⁶ cells per ml, added with 1% goat serum blocking solution, incubated on ice for 20-30 minutes, and then washed with HBSS for 2 times by centrifugation. The collected cells were suspended in the FACS buffer (HBSS+1% BSA) to 2×10⁶ cells/ml, added as 100 microliters per well to a 96-well FACS reaction plate, added with 100 microliters per well of the antibody sample to be tested, incubated on ice for 1-2 hours. The plate was washed twice with the FACS buffer by centrifugation, added with 100 microliters of fluorescent (Alexa 488)-labeled secondary antibodies per well, and incubated on ice for 0.5-1.0 hours. The plate was washed 2-3 times with FACS buffer by centrifugation, added with 100 μl fixative solution (4% Paraformaldehyde) per well to suspend the cells. 5-10 minutes later, it was washed 1-2 times with FACS buffer by centrifugation. The cells were suspended with 100 microliters of FACS buffer, FACS (FACSCalibur, BD) was used for detection and the results were analyzed.

In assay [2] the target is T2, mouse LAG-3 protein with hFc tag (mLAG-3-hFc protein) (mouse; human, UniProt Q61790 24-442).
T2 construct: Made in HEK293 cells; also called mouse LAG-3 extracellular domain protein; not shown: human IgG Fc fragment (hFc) of the pCpC vector
T2 sequence: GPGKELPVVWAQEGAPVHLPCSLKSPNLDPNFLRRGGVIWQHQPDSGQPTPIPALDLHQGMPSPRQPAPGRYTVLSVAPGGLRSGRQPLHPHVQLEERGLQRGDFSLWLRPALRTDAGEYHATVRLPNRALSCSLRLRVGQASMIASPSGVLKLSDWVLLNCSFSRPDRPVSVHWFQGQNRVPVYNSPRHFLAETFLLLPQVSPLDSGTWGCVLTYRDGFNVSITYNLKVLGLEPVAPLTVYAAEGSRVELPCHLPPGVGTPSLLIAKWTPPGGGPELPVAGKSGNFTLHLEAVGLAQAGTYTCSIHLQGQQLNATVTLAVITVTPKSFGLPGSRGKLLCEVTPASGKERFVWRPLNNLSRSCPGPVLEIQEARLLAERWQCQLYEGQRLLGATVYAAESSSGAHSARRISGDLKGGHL
The experiment in a line: ELISA, mLAG-3-hFc coated; 0.0001 nM. On the procedure:
(§1) The plate was sealed with plastic film and incubated overnight at 4° C. The plate was washed 2 times with the plate washing solution (PBS+0.01% Tween20) on the next day, and added with the blocking solution (PBS+0.01% Tween20+1% BSA) and blocked at room temperature for 1-2 hours. The blocking solution was poured out, and the plate was added with 50-100 μl of the antibody sample to be tested to each well, incubated at 37° C. for 1-2 hours, and washed 2-3 times with a plate washing solution (PBS+0.01% Tween20). HRP (horseradish peroxidase) labeled secondary antibody was added, and the plate was incubated at 37° C. for 1-2 hours, and washed 2-3 times with a plate washing solution (PBS+0.01% Tween20). 100 μl of TMB substrate was added to each well. After incubated at room temperature for 15-30 minutes, the plate was added with 100 μl of stop solution (1.0N HCl) to each well.

For assay [3], the target named is T3, human LAG-3 protein with hFc tag (hLAG-3-hFc protein) (human, UniProt P18627 23-450).
T3 construct: also called immunogen 1; LAG-3 extracellular domain protein; not shown: human IgG Fc fragment (hFc) of the pCpC vector
T3 sequence: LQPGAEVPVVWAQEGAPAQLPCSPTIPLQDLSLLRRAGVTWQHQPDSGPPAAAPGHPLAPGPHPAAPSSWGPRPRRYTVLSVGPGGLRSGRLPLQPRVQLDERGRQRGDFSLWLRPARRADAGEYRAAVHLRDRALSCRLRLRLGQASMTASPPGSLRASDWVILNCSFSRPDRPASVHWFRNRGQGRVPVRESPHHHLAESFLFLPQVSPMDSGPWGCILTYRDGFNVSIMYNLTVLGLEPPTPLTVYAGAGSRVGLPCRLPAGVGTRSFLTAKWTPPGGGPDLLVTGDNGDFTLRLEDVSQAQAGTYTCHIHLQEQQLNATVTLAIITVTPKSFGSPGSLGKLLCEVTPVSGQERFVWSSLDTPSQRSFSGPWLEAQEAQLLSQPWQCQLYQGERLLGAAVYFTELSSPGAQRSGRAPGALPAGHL
In words: ELISA, hLAG-3-hFc coated; 0.0007 nM. On the procedure:
as §1

B1: 556F6B8 (mouse antibody purified from hybridoma) (antibody, V domains shown)
VH: RVQLKQSGPGLVQPSQSLSITCTVSGFSLIKYGVHWVRQSPGEGLEWLGVIWRGGITDYNAAFMSRLSITKDNSKSQVFFKMNSLQADDTAIYYCAKWDGPLAMDYWGQGTSVTVSS
VL: DIVMTQSHKFLSTSVGDRVSITCKASQDVGTTVAWYQQKPGQSPKLLIYWASTRHTGVPDRFTGSGSGTDFTLTISNVQSEDLADYFCQQYSSYPYTFGGGTKLEIK
notes: also called mAb123-556F6B8
B1 yielded a Mean fluorescence intensity in assay [1] of 81.8 MFI.

B2: 556F6B8 (LAG-3 mouse-human chimeric antibody) (antibody, V domains shown)
VH: B1 VH
VL: B1 VL
notes: also called 556F8B8
B2: the results for the OD450 in assay [2] and in assay [3] were 0.14 OD450 and 0.17 OD450, respectively.

B3: 405B8H3 (mouse antibody purified from hybridoma) (antibody, V domains shown)
VH: QVQLQQSGAELVRPGASVTLSCKASGYTFTDYEMHWVKQTPVHGLEWIGATDPETGNSAYNQKFKGKAIMTADKSSSTAYMELRSLTSEDSAVYYCISTGWNDWGQGTSLTVSS
VL: DIKMTQSPSSMYASLGERVTITCKASQDINSYLSWFQQKPGKSPKTLIYRADRLLDGVPSRFSGSGSGQDYSLTISSLEYGDMGIYYCLQYDEFPYTFGGGTKLEIK
notes: also called mAb103-405B8H3; 405B81-13
Regarding B3, the Mean fluorescence intensity in assay [1] came to 321 MFI.

B4: 105F1E10 (mouse antibody purified from hybridoma) (antibody, V domains shown)
VH: EVQLQQSGPELVKPGASVKMSCRASGYTFTDFKMHWMKQSHGKSLEWIGYIAPNNGGTAYNQKFRGKATLTVNESSNTAYMELRSLTSEDSAVYYCVDWDDVDYWGQGTTLTVSS
VL: B3 VL with P40S, D52N, L55V, G81E, D92V, Y96L, G100A, I106L
notes: also called mAb009-105F1E10
B4 had a Mean fluorescence intensity in assay [1] of 315 MFI.

B5: 105F1E10 (LAG-3 mouse-human chimeric antibody) (antibody, V domains shown)
VH: B4 VH
VL: B3 VL with P40S, D52N, L55V, G81E, D92V, Y96L, G100A, I106L
On to B5, for which the figures for the OD450 in assay [2] and in assay [3] were 0.09 OD450 and 0.2 OD450, respectively.

B6: 405B8H3 (LAG-3 mouse-human chimeric antibody) (antibody, V domains shown)
VH: B3 VH
VL: B3 VL
notes: also called mouse-human chimeric antibody 405B8H3
Take B6: the OD450 in assay [2] was 0.08 OD450; in assay [3] it was 0.19 OD450.

B7: 409D4E10 (mouse antibody purified from hybridoma) (antibody, V domains shown)
VH: B3 VH with Y27N, G56D, S58T, M70L, A72T, S98T, T99S
VL: B3 VL with D52N, G81E, D92N
notes: also called mAb112-409D4E10
B7 registered a Mean fluorescence intensity in assay [1] of 153 MFI.

B8: 409B11E12 (LAG-3 mouse-human chimeric antibody) (antibody, V domains shown)
VH: B3 VH with P41T, G56S, N57Y, M70L, S98A
VL: B3 VL with I2L, D52N, G81E
Turning to B8, the OD450 came to 0.09 OD450 in assay [2] and 0.2 OD450 in assay [3].

B9: 409D4E10 (LAG-3 mouse-human chimeric antibody) (antibody, V domains shown)
VH: B3 VH with Y27N, G56D, S58T, M70L, A72T, S98T, T99S
VL: B3 VL with D52N, G81E, D92N
As to B9, the results for the OD450 in assay [2] and in assay [3] were 0.1 OD450 and 0.16 OD450, respectively.

B10: 409B11E12 (mouse antibody purified from hybridoma) (antibody, V domains shown)
VH: B3 VH with P41T, G56S, N57Y, M70L, S98A
VL: B3 VL with I2L, D52N, G81E
notes: also called mAb104-409B11E12
B10 had a Mean fluorescence intensity in assay [1] of 148 MFI.

The values are drawn from patent US20210155689A1 (SHANGHAI PHARMAEXPLORER, published 2021).
